Like-named read-outs stand apart in the source and are kept apart here.
Columns and labels:
[1] = Quick release test of releasable PEG-insulin conjugate; assay type: physicochemical; settings: 100 mM HEPES, pH 8.66, 50° C., approximately 24 hours; gel electrophoresis
Method: The pH was adjusted to 8.66 with 11.0 μL 2 M NaOH. Incubated solution at 50° C. for approximately 24 hours. […] This is slightly lower than the theoretical content of 22.5%. […] Peptide mapping was performed to determine which residue on insulin was modified. […] The purity of the conjugate was 91% mono-conjugate as determined by reverse phase HPLC.

beagle dogs [2] = assay: PK/PD after IH (powder inhalation) dosing in dogs (Example 26); settings: for Effect/mg Dosed: AUEC per mg of IH lung dose; for Effect (Glucose Suppression AUEC): lung dose 0.34, 0.6, 2 mg
Method: (§1) The compounds were prepared in accordance with Examples 16 and 18.
(§2) 6 Beagle dogs (˜7-10 kg) were anesthetized in both the IV and IH arms of this study for consistency. Dogs were then given 0.1 mg/kg acepromazine subcutaneously ˜15 minutes prior to 1-5% isoflurane mask induction. Once the appropriate plane of anesthesia was achieved, the pre-shaved neck of the dog was installed with an 18-20 G Abbocath intravenous catheter in the right or left jugular vein and pre-dose sampling was taken. This catheter was used for all blood samplings other than the later time points (16, 20 and 24 hour). Subsequent samples were taken from the cephalic veins.
The formulated control and test articles were delivered by inhalation (IH) via an endotracheal (ET) tube. Ventilator stroke volume was set empirically for each dog to achieve a Peak Mouth Pressure (PMP) of 20-25 cm H2O. A digital manometer (Dwyer Instruments, Michigan City, Ind.) was connected to the ET tube/“Y” connector to monitor PMP. Each blister pack (BP) was delivered with 2 full breathing cycles. No more than 3 BPs were administered during one apneic period. If required to achieve the target administered dose, a second apneic period was induced after an interval of 2 minutes of spontaneous breathing.
Total administered powder as well as estimated inhaled total lung dose were reported.
(§3) Whole blood was used for the glucose measurements. EDTA-anticoagulated plasma was used for compound quantitation assays.
(§4) Quantitation of test and control articles for PK analysis was made with a radio-immuno assay (RIA) conducted at Linco Research, St-Charles, Mo. […] This antiserum was used as the basis of an RIA assay which was then qualified with respect to accuracy, precision, sensitivity, and dilutional linearity. The working range of this assay was 0.15-5 ng/ml. Samples exceeding the upper boundary of this range were diluted in a pool of charcoal-stripped canine plasma.
To calculate the overall glucose suppression, glucose levels were normalized by the equation:
GlucoseSuppression(t)=PredoseGlucoseConcentration−Glucose(t)
The glucose suppression-time profiles were integrated using linear-trapezoidal rule to calculate the area under the effect curve (AUEC).

[3] = 100 mM acetic acid
beagle dogs [4] = assay: PK/PD after IV dosing in dogs (Example 26); settings: for CMAX: baseline corrected
Method: as §1, §2
The test and control articles were administered by bolus intravenous (IV) injection of a volume of 300 μl into the left cephalic vein using a 22 G 1 inch 1 mL tuberculin syringe.
as §3, §4

beagle dogs [5] = settings: glucose clamp, powder inhalation (FIG. 13a)
Method: The glucose clamp technique involved the continuous infusion of a 50% glucose solution at a rate such that normal serum glucose values were maintained throughout the experiment (e.g., normal range is 80-100 mg/dl).
Glucagon was also infused to maintain normal serum physiologic concentrations. […] Blood was withdrawn from an indwelling catheter over a 10-hour period.

[6] = 14.3/(14.3 + 0.2) * 100%
Method: Concentrations of collected samples were determined using UV spectroscopy, while the integrity analysis of the collected protein was evaluated by HPLC.

Sprague-Dawley rats [7] = assay: Dose determination and PK/PD after intratracheal instillation (Example 25); assay type: in vivo, rat; settings: intratracheal
Method: A spectrometric measurement of compound concentration was also made.
Intratracheal Instillation (IT) was conducted as follows.
Sample Collection was performed as follows.
The glucose monitoring was conducted as follows.
The experimental protocol was modified for the analysis of the acetylated compounds. This resulted from the intent to use LC/MS-MS for the quantitation of compound concentrations in plasma. This analytical technique requires a larger volume of plasma to permit concentration of the sample and achieve the requisite increase in sensitivity. […] The protocol was therefore modified to increase the number of animals by two-fold and split the samples between these two cohorts.
To explore the data further, the PK profiles after IT doses were deconvoluted using IV PK parameters using the Wagner Nelson deconvolution procedure, to generate the cumulative absorption profile (FIG. 32).

Sprague-Dawley rats [8] = settings: rats, intravenous
Description: The first phase established a dose of the compound required to achieve a target blood glucose reduction. This target blood glucose reduction was chosen to be the minimum reduction that is clearly recognizable as different from the resting blood glucose concentration.
The second phase examined the pharmacokinetics/pharmacodynamics of the molecule when administered to rats at the selected dose over an observation time sufficient for the glucose to return to baseline.
These experiments were conducted on male adult Sprague-Dawley rats of approximately 0.30-0.40 kg. Animals were obtained pre-cannulated with a jugular vein catheter (JVC) for blood sampling and, in the case of IV administration, and additional femoral vein catheter (FVC).
Intravenous administration of compounds was made via a femoral catheter in a volume of 300 μl.
Sample Collection was performed as follows. Blood samples of approximately 0.50 mL were collected from the JVC using a 1 mL syringe at each time point. A new syringe was used for each time point along with precautions to prevent contamination and carry-over.
The glucose monitoring was conducted as follows. Approximately 20 μL of whole blood was touched to the end of the glucose test strip of 2 Glucometer Elite glucose monitors for a duplicate determination of blood glucose concentrations. If there was a discrepancy of greater than 5 mg/dl, a third reading was taken.
The sample for compound quantitation in plasma, which served as basis for the PK analysis, was collected and processed as follows. The volume of blood remaining after the glucose measurement (˜480 μL) was anticoagulated with K2 EDTA and centrifuged to recover plasma. The plasma was collected and stored at −80° C. until analysis.

[9] = dogs, IV, insulin 0.027, 2K 0.058, 5K 0.084 mg/dog, mean
[10] = dog, in vivo, inhaled or intranasal

## G2-PEG2-FMOC-NHS 40K insulin: Example 21: releasable mono-conjugate of insulin with G2-PEG2-FMOC-NHS 40K, site specific (B1)
[1]
  release of insulin from the PEG: Complete release

## Insulin: unmodified human insulin used as control and starting material [reference compound]
Beagle dogs [2]; dogs, IH, 0.34 mg/dog
  time of last quantifiable sample: 2 h
Beagle dogs [2]; dogs, IH
  Effect/mg Dosed: 156
  Effect (Glucose Suppression AUEC): 53
Beagle dogs [2]; dogs, IH, lung dose insulin 0.34, 2K 0.60, 5K 2.0 mg/dog, mean
  AUC0-LAST: 1.538 ng·h/mL
Beagle dogs [2]; dogs, IH, lung dose insulin 0.34, 2K 0.60, 5K 2.0 mg/dog, mean, baseline corrected
  CMAX: 1.567 ng/mL
Beagle dogs [2]; dogs, powder after the ET tube, relative to IV
  calculated IH bioavailability: about 6%
[3]; pH 4
  solubility: ~5000 µg/mL
[3]; pH 4, listed as insulin
  solubility: up to 5 mg/ml
[3]; pH 5
  solubility: less than 1 mg/ml
Beagle dogs [4]; [9]
  AUC0-LAST: 1.822 ng·h/mL
  CMAX: 9.1 ng/mL
Beagle dogs [4]; dogs, IV, insulin 0.027, 2K 0.058, 5K 0.084 mg/dog, mean, listed as INSULIN
  CMAX: 9.117 ng/mL
Beagle dogs [5]
  duration for which glucose infusion was necessary: 300 min

## di-N^αA1,N^εB29-(acetyl)-N^αB1-{3-[methoxy(ethoxy)5K]propionyl}insulin [PEG5000-B1 Di-acetylated insulin]
Beagle dogs [2]; dog, in vivo
  T1/2: about 15 HR
  T1/2, range across dogs: 6.6 to 51 h
  TMAX: about 2.5 HR
  Tmax, range across dogs: 1 to 8 h
Beagle dogs [2]; [10]
  T1/2: 15.045 h
  calculated IH bioavailability: about 36%
Beagle dogs [2]; dogs, IH
  duration of glucose suppression versus Insulin: significantly increased
  Effect/mg Dosed: 179
  Effect (Glucose Suppression AUEC): 358
Beagle dogs [4]; beagle, dog, in vivo, iv
  T1/2: 0.755 h
Beagle dogs [4]; dog, in vivo, iv
  T1/2: about 0.76 HR
  TMAX: 4.8 min
  central volume of distribution (Vc): about 115 mL/kg
Beagle dogs [4]; dogs, IV
  overall glucose suppression versus Insulin: overall glucose suppressions were similar in terms of maximum suppression and duration of action
[6]
  % Collected as aerosol: 98%^1
Sprague-Dawley rats [7]; 520 μg/animal (Table 7)
  Cmin (minimum blood glucose concentration): 58 ± 11 mg/dL
  Tmin (time to Cmin): 7.1 ± 6.6 h
Sprague-Dawley rats [7]; selected dose
  time up to which blood glucose is still suppressed (not back to baseline): at least 12 hrs
Sprague-Dawley rats [8]; insulin mass
  dose adequate to reduce blood glucose to the target (40-60 mg/dl): 20 μg/rat
Sprague-Dawley rats [8]; 20 μg/rat (5K di-acetylated), 10 μg/rat (2K di-acetylated)
  group mean Cmin (blood glucose nadir), definitive leg: 54 mg/dL
